From US10941182 (Amgen, dated 2021) come the findings set out here.

The target of assay [1] is T1, human APJ receptor (human, UniProt P35414 1-380).
T1 sequence (looked up): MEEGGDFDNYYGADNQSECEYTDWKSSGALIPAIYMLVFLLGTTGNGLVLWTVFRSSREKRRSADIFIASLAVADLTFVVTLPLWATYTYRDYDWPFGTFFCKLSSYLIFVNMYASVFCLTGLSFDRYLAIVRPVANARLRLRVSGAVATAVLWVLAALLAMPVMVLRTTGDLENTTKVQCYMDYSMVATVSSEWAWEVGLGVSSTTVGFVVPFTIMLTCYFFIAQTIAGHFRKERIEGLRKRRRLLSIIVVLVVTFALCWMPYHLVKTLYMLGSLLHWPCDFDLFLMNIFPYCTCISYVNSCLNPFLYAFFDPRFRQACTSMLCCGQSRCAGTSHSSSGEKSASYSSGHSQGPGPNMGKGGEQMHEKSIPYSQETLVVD
The assay is described as follows: cell-based or functional assay.

The target in assay [2] is T2, rat APJ receptor (rat, UniProt Q9JHG3 1-377).
T2 sequence (looked up): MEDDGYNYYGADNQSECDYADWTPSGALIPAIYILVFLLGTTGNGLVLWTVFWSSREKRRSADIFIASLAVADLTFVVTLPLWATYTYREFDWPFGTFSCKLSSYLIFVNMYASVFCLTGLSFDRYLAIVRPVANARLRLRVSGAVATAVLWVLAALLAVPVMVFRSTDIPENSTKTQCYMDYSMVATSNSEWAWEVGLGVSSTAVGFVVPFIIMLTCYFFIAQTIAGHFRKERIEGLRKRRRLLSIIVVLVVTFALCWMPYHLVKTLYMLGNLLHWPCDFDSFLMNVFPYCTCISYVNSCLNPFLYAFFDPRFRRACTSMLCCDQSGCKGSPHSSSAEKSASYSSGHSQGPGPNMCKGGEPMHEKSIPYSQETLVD
The assay is described as follows: cell-based or functional assay.

Starred links: 1 amine or outer side, 2 acyl side, 3 side chain; linkers in the order of their positions; H or OH if unused. Non-standard residues stand in square brackets, D forms with d. Primed or numbered codes have the meaning given here. *: point of attachment. NPipG = 2-(piperidin-4-ylamino)acetic acid, O=C(CN(C1CCN([*:3])CC1)[*:1])[*:2]; AC4Abu = α-carboxy-4-aminobutyric acid, O=C(C(CCN[*:1])C(=O)[*:3])[*:2]; dBip = N[C@H](Cc1ccc(-c2ccccc2)cc1)C(=O)O; Oic = O=C(O)[C@@H]1C[C@@H]2CCCC[C@@H]2N1; Phe(4-Cl) = N[C@@H](Cc1ccc(Cl)cc1)C(=O)O; dPhe(4-Cl) = N[C@H](Cc1ccc(Cl)cc1)C(=O)O; Heptadecanoyl = CCCCCCCCCCCCCCCCC(=O)*; Phe(4-I) = N[C@@H](Cc1ccc(I)cc1)C(=O)O; γGlu = O=C(O)[C@H](CCC(=O)[*:2])N[*:1]; d(β3hF) = N[C@@H](CC(=O)O)Cc1ccccc1; NMeR = CN[C@@H](CCCNC(=N)N)C(=O)O; Palmitoyl = CCCCCCCCCCCCCCCC(=O)*; hArg = N=C(N)NCCCC[C@H](N)C(=O)O; Cha = N[C@@H](CC1CCCCC1)C(=O)O; NMeL = CN[C@@H](CC(C)C)C(=O)O; Nle = CCCC[C@H](N)C(=O)O; Pip′ = not defined here; Hexanoyl = CCCCCC(=O)*; AEEA = NCCOCCOCC(=O)O; Aib = CC(C)(N)C(=O)O; Ahx = NCCCCCC(=O)O

B1: SEQ ID NO: 614 (peptide)
peptide: Palmitoyl-[γGlu][AEEA][AEEA][dQ][hArg]P[dR][Cha]SHKG[Oic][Nle]P[d(β3hF)]-OH
SMILES: CCCCCCCCCCCCCCCC(=O)N[C@@H](CCC(=O)NCCOCCOCC(=O)NCCOCCOCC(=O)N[C@H](CCC(N)=O)C(=O)N[C@@H](CCCCNC(=N)N)C(=O)N1CCC[C@H]1C(=O)N[C@H](CCCNC(=N)N)C(=O)N[C@@H](CC1CCCCC1)C(=O)N[C@@H](CO)C(=O)N[C@@H](Cc1c[nH]cn1)C(=O)N[C@@H](CCCCN)C(=O)NCC(=O)N1[C@H](C(=O)N[C@@H](CCCC)C(=O)N2CCC[C@H]2C(=O)N[C@@H](CC(=O)O)Cc2ccccc2)C[C@@H]2CCCC[C@@H]21)C(=O)O
For B1, the “EC50 Human APJ Receptor” value in assay [1] stood at 1.25 nM. Also, in assay [2], the “EC50 Rat APJ Receptor” value was 10.3 nM.

B2: SEQ ID NO: 506 (peptide)
peptide: Hexanoyl-[γGlu][AEEA][AEEA][AEEA][hArg]Q[hArg]P[NMeR][Cha]SHKG[Oic][Nle]P[Phe(4-Cl)]-OH
SMILES: CCCCCC(=O)N[C@@H](CCC(=O)NCCOCCOCC(=O)NCCOCCOCC(=O)NCCOCCOCC(=O)N[C@@H](CCCCNC(=N)N)C(=O)N[C@@H](CCC(N)=O)C(=O)N[C@@H](CCCCNC(=N)N)C(=O)N1CCC[C@H]1C(=O)N(C)[C@@H](CCCNC(=N)N)C(=O)N[C@@H](CC1CCCCC1)C(=O)N[C@@H](CO)C(=O)N[C@@H](Cc1c[nH]cn1)C(=O)N[C@@H](CCCCN)C(=O)NCC(=O)N1[C@H](C(=O)N[C@@H](CCCC)C(=O)N2CCC[C@H]2C(=O)N[C@@H](Cc2ccc(Cl)cc2)C(=O)O)C[C@@H]2CCCC[C@@H]21)C(=O)O
For B2, the “EC50 Human APJ Receptor” value in assay [1] stood at 3.49 nM. Besides, in assay [2], the “EC50 Rat APJ Receptor” value stood at 13.2 nM.

B3: SEQ ID NO: 12 (peptide)
peptide: H-KFRRQRPRLSHKGPMP-OH
As for B3, the “EC50 Human APJ Receptor” value in assay [1] turned out to be 1.42 nM. For the same molecule, the “EC50 Rat APJ Receptor” value in assay [2] is 5.81 nM.

B4: SEQ ID NO: 496 (peptide)
peptide: XXXQRPRLSHKGPXPF
modifications: {HDA}[AC4Abu][Aeea][Aeea]QRP[NMeArg]LSHKGP[Nle]P[4-Cl-F]{COOH}
Take B4: in assay [1], the “EC50 Human APJ Receptor” value came to 0.0874 nM. The “EC50 Rat APJ Receptor” value in assay [2] came out at 0.481 nM.

B5: SEQ ID NO: 493 (peptide)
peptide: XXXQRPRLSHKGPXPF
modifications: {Oc}[AC4Abu][Aeea][Aeea]QRP[NMeArg]LSHKGP[Nle]P[4-Cl-F]{COOH}
Turning to B5, the “EC50 Human APJ Receptor” value in assay [1] was 0.12 nM. For the same molecule, the “EC50 Rat APJ Receptor” value in assay [2] was 0.647 nM.

B6: SEQ ID NO: 566 (peptide)
peptide: Hexanoyl-[Ahx][AC4Abu][AEEA][AEEA][hArg][dR]Q[hArg]P[dR][NMeL]SHKG[Oic][Phe(4-I)]P[dBip]-OH
SMILES: CCCCCC(=O)NCCCCCC(=O)NCCC(C(=O)O)C(=O)NCCOCCOCC(=O)NCCOCCOCC(=O)N[C@@H](CCCCNC(=N)N)C(=O)N[C@H](CCCNC(=N)N)C(=O)N[C@@H](CCC(N)=O)C(=O)N[C@@H](CCCCNC(=N)N)C(=O)N1CCC[C@H]1C(=O)N[C@H](CCCNC(=N)N)C(=O)N(C)[C@@H](CC(C)C)C(=O)N[C@@H](CO)C(=O)N[C@@H](Cc1c[nH]cn1)C(=O)N[C@@H](CCCCN)C(=O)NCC(=O)N1[C@H](C(=O)N[C@@H](Cc2ccc(I)cc2)C(=O)N2CCC[C@H]2C(=O)N[C@H](Cc2ccc(-c3ccccc3)cc2)C(=O)O)C[C@@H]2CCCC[C@@H]21
Turning to B6, the “EC50 Human APJ Receptor” value in assay [1] amounted to 1.13 nM. Moreover, the “EC50 Rat APJ Receptor” value in assay [2] is 1.65 nM.

B7: SEQ ID NO: 563 (peptide)
peptide: Hexanoyl-[AC4Abu][AEEA][AEEA][hArg][dR]Q[hArg]P[dR][NMeL]SHKG[Pip′][Phe(4-I)]P[dBip]-OH
Take B7: in assay [1], the “EC50 Human APJ Receptor” value was 4.3 nM. Also, the “EC50 Rat APJ Receptor” value in assay [2] worked out at 12.7 nM.

B8: SEQ ID NO: 576 (peptide)
peptide: Heptadecanoyl-[AC4Abu][AEEA][AEEA][dQ]RP[NMeR][Cha]SHKG[Oic][Nle]P[dPhe(4-Cl)]-OH
SMILES: CCCCCCCCCCCCCCCCC(=O)NCCC(C(=O)O)C(=O)NCCOCCOCC(=O)NCCOCCOCC(=O)N[C@H](CCC(N)=O)C(=O)N[C@@H](CCCNC(=N)N)C(=O)N1CCC[C@H]1C(=O)N(C)[C@@H](CCCNC(=N)N)C(=O)N[C@@H](CC1CCCCC1)C(=O)N[C@@H](CO)C(=O)N[C@@H](Cc1c[nH]cn1)C(=O)N[C@@H](CCCCN)C(=O)NCC(=O)N1[C@H](C(=O)N[C@@H](CCCC)C(=O)N2CCC[C@H]2C(=O)N[C@H](Cc2ccc(Cl)cc2)C(=O)O)C[C@@H]2CCCC[C@@H]21
On to B8, for which the “EC50 Human APJ Receptor” value in assay [1] came to 3.33 nM. In assay [2], the “EC50 Rat APJ Receptor” value turned out to be 5.17 nM.

B9: SEQ ID NO: 512 (peptide)
peptide: XXXQRPRLSHKGPXPF
modifications: {HexDDA}[AC4Abu][Aeea][Aeea]QRP[NMeArg]LSHKGP[Nle]P[4-Cl-F]{COOH}
Turning to B9, in assay [1], the “EC50 Human APJ Receptor” value was determined as 0.658 nM. Also, the “EC50 Rat APJ Receptor” value in assay [2] is 4.59 nM.

B10: SEQ ID NO: 14 (peptide)
peptide: KLRKHNXLQRRXMPLHSRVPFP
modifications: {H2}KLRKHN[Abu]LQRR[Abu]MPLHSRVPFP{COOH}
For the molecule B10, the “EC50 Human APJ Receptor” value in assay [1] came out at 0.301 nM. In assay [2], the “EC50 Rat APJ Receptor” value worked out at 32.4 nM.

B11: SEQ ID NO: 646 (peptide)
peptide: Palmitoyl-[AC4Abu][AEEA][AEEA][dQ][NPipG]P[NMeR][Cha]SHKG[Pip′][Nle][Aib][Phe(4-Cl)]-OH
As to B11, the “EC50 Human APJ Receptor” value in assay [1] was found to be 0.27 nM. In addition, the “EC50 Rat APJ Receptor” value in assay [2] was determined as 0.994 nM.

B12: SEQ ID NO: 562 (peptide)
peptide: Hexanoyl-[AC4Abu][AEEA][AEEA]QRP[NMeR][Cha]SHKG[Oic][Nle][Aib][Phe(4-Cl)]-OH
SMILES: CCCCCC(=O)NCCC(C(=O)O)C(=O)NCCOCCOCC(=O)NCCOCCOCC(=O)N[C@@H](CCC(N)=O)C(=O)N[C@@H](CCCNC(=N)N)C(=O)N1CCC[C@H]1C(=O)N(C)[C@@H](CCCNC(=N)N)C(=O)N[C@@H](CC1CCCCC1)C(=O)N[C@@H](CO)C(=O)N[C@@H](Cc1c[nH]cn1)C(=O)N[C@@H](CCCCN)C(=O)NCC(=O)N1[C@H](C(=O)N[C@@H](CCCC)C(=O)NC(C)(C)C(=O)N[C@@H](Cc2ccc(Cl)cc2)C(=O)O)C[C@@H]2CCCC[C@@H]21
With B12, the “EC50 Human APJ Receptor” value in assay [1] turned out to be 3.85 nM. In addition, the “EC50 Rat APJ Receptor” value in assay [2] is 16.3 nM.

B13: SEQ ID NO: 561 (peptide)
peptide: XXXQRPRLSHKGPXPF
modifications: {hexanoyl}[AC4Abu][Aeea][Aeea]Q[NMehArg]P[NMeArg][aMeLeu]SHKGP[Nle]P[4-Cl-F]{COOH}
On to B13, for which, in assay [1], the “EC50 Human APJ Receptor” value was 1.21 nM. The “EC50 Rat APJ Receptor” value in assay [2] was determined as 5.94 nM.

B14: SEQ ID NO: 560 (peptide)
peptide: XXXQRPRLSHKGPXPF
modifications: {hexanoyl}[AC4Abu][Aeea][Aeea]QR[aMePro][hArg][aMeLeu]SHKGP[Nle]P[4-Cl-F]{COOH}
As for B14, the “EC50 Human APJ Receptor” value in assay [1] was determined as 0.0553 nM. For the same molecule, the “EC50 Rat APJ Receptor” value in assay [2] turned out to be 0.274 nM.

B15: SEQ ID NO: 290 (peptide)
peptide: XXXQRPRLSHKGPMPF
modifications: {ODDA}[AC4Abu][Aeea][Aeea]QRPRLSHKGPMPF{COOH}
Consider B15, for which the “EC50 Human APJ Receptor” value in assay [1] amounted to 40.1 nM. For the same molecule, the “EC50 Rat APJ Receptor” value in assay [2] was determined as 173 nM.

B16: SEQ ID NO: 286 (peptide)
peptide: Hexanoyl-[γGlu][AEEA][AEEA][hArg][dR]Q[hArg]P[dR][NMeL]SHKG[Oic][Phe(4-I)]P[dBip]-OH
SMILES: CCCCCC(=O)N[C@@H](CCC(=O)NCCOCCOCC(=O)NCCOCCOCC(=O)N[C@@H](CCCCNC(=N)N)C(=O)N[C@H](CCCNC(=N)N)C(=O)N[C@@H](CCC(N)=O)C(=O)N[C@@H](CCCCNC(=N)N)C(=O)N1CCC[C@H]1C(=O)N[C@H](CCCNC(=N)N)C(=O)N(C)[C@@H](CC(C)C)C(=O)N[C@@H](CO)C(=O)N[C@@H](Cc1c[nH]cn1)C(=O)N[C@@H](CCCCN)C(=O)NCC(=O)N1[C@H](C(=O)N[C@@H](Cc2ccc(I)cc2)C(=O)N2CCC[C@H]2C(=O)N[C@H](Cc2ccc(-c3ccccc3)cc2)C(=O)O)C[C@@H]2CCCC[C@@H]21)C(=O)O
Consider B16, for which the “EC50 Human APJ Receptor” value in assay [1] was 1.62 nM. In assay [2], the “EC50 Rat APJ Receptor” value was 3.07 nM.
